Starred links: 1 amine or outer side, 2 acyl side, 3 side chain; linkers in the order of their positions; H or OH if unused. Positions of bridges follow the written chain, without caps; N, C: chain ends. Non-standard residues stand in square brackets, D forms with d. No end group written: not given here. *: point of attachment. AcrK = N6-acryloyl-L-lysine, C=CC(=O)NCCCC[C@H](N[*:1])C(=O)[*:2]; 5FAM = O=C1OC2(c3ccc(O)cc3Oc3cc(O)ccc32)c2ccc(C(=O)*)cc21
Tests used:
HDAC8 [1] = molecular target: T1, HDAC8 (UniProt Q9BY41 1-377); test: cell-based or functional assay
T1 sequence (looked up): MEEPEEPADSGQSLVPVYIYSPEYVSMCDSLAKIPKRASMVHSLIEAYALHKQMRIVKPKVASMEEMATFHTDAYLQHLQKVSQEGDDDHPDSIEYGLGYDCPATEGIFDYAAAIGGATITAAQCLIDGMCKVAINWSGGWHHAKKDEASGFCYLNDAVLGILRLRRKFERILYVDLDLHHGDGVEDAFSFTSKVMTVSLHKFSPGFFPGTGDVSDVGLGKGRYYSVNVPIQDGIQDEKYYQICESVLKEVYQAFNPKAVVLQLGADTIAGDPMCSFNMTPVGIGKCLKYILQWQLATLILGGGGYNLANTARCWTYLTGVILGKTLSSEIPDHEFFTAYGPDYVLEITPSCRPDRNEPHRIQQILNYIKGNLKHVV

HDAC8 [2] = molecular target: T1, HDAC8; test: fluorescence polarization (summary sentence of the example)
Experimental: (§1) The fluorescence polarization was measured in a microplate reader at Ex/Em=490 nm/520 nm.

HDAC8 [3] = molecular target: T1, HDAC8; test: fluorescence polarization, 25 nM 5-FAM peptide, protein titrated
Experimental: as §1

Row | Binder | IC50 of inhibition of HDAC8 deacetylation of Boc-AcK-AMC (fluorogenic, trypsin-coupled activity assay) (HDAC8 [1]) [µM] | fold stronger affinity than its linear counterpart (HDAC8 [2]) [fold] | Kd (HDAC8 [3]) [µM]
1 | CQSLWMN[AcrK]K(5FAM)-NH2 (bridge 1-8; not fully specified (bridges), also called 5FAM-CycH8a; 5FAM-cycH8a) [5-FAM-conjugated CycH8a] | 9.7 | 6 | 7.1
2 | CQSLWMNKK(5FAM)-NH2 (N-terminus assumed; SMILES CSCC[C@H](NC(=O)[C@H](Cc1c[nH]c2ccccc12)NC(=O)[C@H](CC(C)C)NC(=O)[C@H](CO)NC(=O)[C@H](CCC(N)=O)NC(=O)[C@@H](N)CS)C(=O)N[C@@H](CC(N)=O)C(=O)N[C@@H](CCCCN)C(=O)N[C@@H](CCCCNC(=O)c1ccc2c(c1)C(=O)OC21c2ccc(O)cc2Oc2cc(O)ccc21)C(N)=O, Linear counterpart with plain Lys in place of AcrK; also called linear counterpart of 5FAM-CycH8a) [5-FAM-conjugated LinH8a] |  |  | > 50
